How the values were obtained:
AIM knockout mice = assay: Macrophage infiltration into adipose tissue after systemic rAIM administration; type: in vivo, mouse; conditions: intravenous injection 50 μg/body/injection, 3 weeks
Method: Then, rAIM was systemically administered to the AIM knockout mice by intravenous injection (50 μg/body/injection). After the administration was continued for 3 weeks, a section produced from the visceral fat tissue was stained with an anti-macrophage monoclonal antibody (F4/80).

3T3-L1 adipocytes = assay: Glycerol and free fatty acid released in culture supernatant; type: cell-based, mouse; conditions: rAIM 5 μg/ml, day 2, day 4, day 6
Method: rAIM was loaded (5 μg/ml) on 3T3-L1 adipocytes, the amount of glycerol or free fatty acid released in the culture supernatant was measured on day 2, day 4, and day 6. After rAIM loading, the cells were washed twice with PBS, and incubated in a serum-free medium (FreeStyle™ 293 Expression Medium; Invitrogen) for 5 hr. The buffer was recovered, and the measurement was performed using a glycerol assay kit and a fatty acid assay kit (both Bio Vision Inc.) and according to the manual.

CD36-/- mice = assay: rAIM uptake into adipose tissue of CD36+/+ and CD36-/- mice; type: in vivo; conditions: rAIM intravenous 300 μg/mouse, 16 hr
Method: Then, CD36^+/+ mice (wild-type) and CD36^−/− mice (Febbraio et al., J. Biol. Chem., 1999, 274:19055-19062) were intravenously injected with rAIM (300 μg/mouse in PBS), sacrificed 16 hr later, and a section was prepared from adipose tissue. AIM and macrophage F4/80 in the section were stained.

FAS [1] = assay: Co-immunoprecipitation of AIM-HA and FLAG-FAS or FAS domains in HEK 293T cells; type: binding; conditions: Flag-labeled FAS domains in HEK293T cells stably expressing AIM-HA
Excerpt: (§1) In HEK 293T cells, rAIM labeled with HA-tag and FAS labeled with FLAG-tag were co-expressed, and the binding of AIM and FAS was confirmed by co-immunoprecipitation using an anti-Flag antibody or anti-HA antibody.
(§2) Then, the AIM binding region in FAS was examined. FAS contains 8 domains of keto acyl synthase (KS), malonyl/acetyl transferase (MAT), dehydrase (DH), central core (CC), enoylreductase (ER), keto reductase (KR), acylcarrier protein (ACP) and thioesterase (TE).
(§3) The N-terminal of each domain of FAS was labeled with Flag sequence, and expressed in HEK293T cells where AIM-HA is stably expressed. The binding of AIM-HA and each domain of FAS was confirmed by co-immunoprecipitation using an anti-Flag antibody or anti-HA antibody.
(§4) The sequence encoding full-length FAS cDNA (nucleotide: +1-7515) labeled with FLAG-tag was constructed using a part of the cDNA clone provided by Dr. Ohara (Kazusa DNA Research Institute) and some fragments cloned by RT-PCR and pFLAG-CMV2 vector (Sigma).
(§5) A cDNA fragment encoding KS, MAT, DH, CC, ER, KR, ACP or TE was prepared by subcloning to pFLAG-CMV2 vector by using full-length FAS cDNA as a template.

AIM-/- mice = assay: mRNA level of markers in visceral fat tissue by QPCR; type: in vivo, mouse; conditions: rAIM administration group relative to BSA group, standardized with GAPDH
Method: The mRNA level of adipocyte marker, preadipocyte marker, and lipid droplet formation-related genes in the RNA extracted from visceral fat tissue of the mice of the rAIM administration group and BSA administration group was measured by QPCR. The measurement values were standardized with the measurement values of GAPDH, and shown by an expression level relative to that of the adipose tissue administered with BSA.

FAS [2] = molecular target: T1, FAS (Mus musculus, UniProt P19096); assay: Co-immunoprecipitation of rAIM-HA and endogenous FAS in adipose tissue; type: binding; design: endogenous; conditions: adipose tissue of AIM-/- mice, 100 μg injected, 3 hr
Method: rAIM labeled with HA-tag was directly injected to adipose tissue of AIM^−/− mice (at several points, 100 μg in total). After 3 hr, to confirm binding of rAIM-HA and endogenous FAS, co-immunoprecipitation by anti-HA antibody was performed using adipose tissue. The presence of FAS in the precipitate was analyzed by Western blotting (WB).

FAS [3] = molecular target: T1, FAS; assay: FAS enzyme activity of treated 3T3-L1 adipocytes; type: cell-based; design: endogenous in cells; host or cells: 3T3-L1 adipocytes (treated cells, then lysed); conditions: 3T3-L1 adipocytes, rAIM 5 μg/ml, 6 days
Method: The influence of AIM on FAS activity of adipocyte or adipose tissue was examined. FAS activity was measured by the method of Kelley (Kelley et al., Biochem. J., 1986, 235:87-90) with slight modification. 3T3-L1 adipocytes, or lysates of adipose tissue of obese mice was mixed with acetyl-CoA and NADPH (0.2 M […] phosphate buffer [pH 7.0] containing 0.4 mM EDTA), and the mixture was placed in a spectrophotometer cuvette and maintained at 30° C. 20 μl of malonyl-CoA solution (0.2 mM) was added to start an enzyme reaction and decrease of OD was measured at a chart speed 2 cm/min. Based on the results, the enzyme activity of FAS was evaluated using the molar extinction coefficient of […] NADPH as 6220.
First, the FAS activity of 3T3-L1 cells treated for 6 days in the presence or absence of rAIM (5 μg/ml), and in the presence of C75 (25 μM) was measured. Moreover, the FAS activity of adipose tissues of AIM^+/+ mice and AIM^−/− mice and the FAS activity of adipose tissue of AIM^−/− mice administered with rAIM or BSA 3 hr before by intraadipose topical injection are shown in FIGS. 28 and 29, respectively.
All mice were fed with HFD for 20 weeks. The samples were dissolved (lysed) and the FAS activity was measured. The data was converted to that based on FAS protein, according to the results of WB performed using the same sample.

FAS [4] = molecular target: T1, FAS; assay: Co-immunoprecipitation of AIM-HA and FLAG-FAS or FAS domains in HEK 293T cells; type: binding; design: expressed in transfected cells; host or cells: HEK 293T cells co-expressing AIM-HA; conditions: HEK 293T cells co-expressing HA-tag rAIM and FLAG-tag FAS
Excerpt: as §1, §2, §3, §4, §5

T1 sequence (P19096 whole entry): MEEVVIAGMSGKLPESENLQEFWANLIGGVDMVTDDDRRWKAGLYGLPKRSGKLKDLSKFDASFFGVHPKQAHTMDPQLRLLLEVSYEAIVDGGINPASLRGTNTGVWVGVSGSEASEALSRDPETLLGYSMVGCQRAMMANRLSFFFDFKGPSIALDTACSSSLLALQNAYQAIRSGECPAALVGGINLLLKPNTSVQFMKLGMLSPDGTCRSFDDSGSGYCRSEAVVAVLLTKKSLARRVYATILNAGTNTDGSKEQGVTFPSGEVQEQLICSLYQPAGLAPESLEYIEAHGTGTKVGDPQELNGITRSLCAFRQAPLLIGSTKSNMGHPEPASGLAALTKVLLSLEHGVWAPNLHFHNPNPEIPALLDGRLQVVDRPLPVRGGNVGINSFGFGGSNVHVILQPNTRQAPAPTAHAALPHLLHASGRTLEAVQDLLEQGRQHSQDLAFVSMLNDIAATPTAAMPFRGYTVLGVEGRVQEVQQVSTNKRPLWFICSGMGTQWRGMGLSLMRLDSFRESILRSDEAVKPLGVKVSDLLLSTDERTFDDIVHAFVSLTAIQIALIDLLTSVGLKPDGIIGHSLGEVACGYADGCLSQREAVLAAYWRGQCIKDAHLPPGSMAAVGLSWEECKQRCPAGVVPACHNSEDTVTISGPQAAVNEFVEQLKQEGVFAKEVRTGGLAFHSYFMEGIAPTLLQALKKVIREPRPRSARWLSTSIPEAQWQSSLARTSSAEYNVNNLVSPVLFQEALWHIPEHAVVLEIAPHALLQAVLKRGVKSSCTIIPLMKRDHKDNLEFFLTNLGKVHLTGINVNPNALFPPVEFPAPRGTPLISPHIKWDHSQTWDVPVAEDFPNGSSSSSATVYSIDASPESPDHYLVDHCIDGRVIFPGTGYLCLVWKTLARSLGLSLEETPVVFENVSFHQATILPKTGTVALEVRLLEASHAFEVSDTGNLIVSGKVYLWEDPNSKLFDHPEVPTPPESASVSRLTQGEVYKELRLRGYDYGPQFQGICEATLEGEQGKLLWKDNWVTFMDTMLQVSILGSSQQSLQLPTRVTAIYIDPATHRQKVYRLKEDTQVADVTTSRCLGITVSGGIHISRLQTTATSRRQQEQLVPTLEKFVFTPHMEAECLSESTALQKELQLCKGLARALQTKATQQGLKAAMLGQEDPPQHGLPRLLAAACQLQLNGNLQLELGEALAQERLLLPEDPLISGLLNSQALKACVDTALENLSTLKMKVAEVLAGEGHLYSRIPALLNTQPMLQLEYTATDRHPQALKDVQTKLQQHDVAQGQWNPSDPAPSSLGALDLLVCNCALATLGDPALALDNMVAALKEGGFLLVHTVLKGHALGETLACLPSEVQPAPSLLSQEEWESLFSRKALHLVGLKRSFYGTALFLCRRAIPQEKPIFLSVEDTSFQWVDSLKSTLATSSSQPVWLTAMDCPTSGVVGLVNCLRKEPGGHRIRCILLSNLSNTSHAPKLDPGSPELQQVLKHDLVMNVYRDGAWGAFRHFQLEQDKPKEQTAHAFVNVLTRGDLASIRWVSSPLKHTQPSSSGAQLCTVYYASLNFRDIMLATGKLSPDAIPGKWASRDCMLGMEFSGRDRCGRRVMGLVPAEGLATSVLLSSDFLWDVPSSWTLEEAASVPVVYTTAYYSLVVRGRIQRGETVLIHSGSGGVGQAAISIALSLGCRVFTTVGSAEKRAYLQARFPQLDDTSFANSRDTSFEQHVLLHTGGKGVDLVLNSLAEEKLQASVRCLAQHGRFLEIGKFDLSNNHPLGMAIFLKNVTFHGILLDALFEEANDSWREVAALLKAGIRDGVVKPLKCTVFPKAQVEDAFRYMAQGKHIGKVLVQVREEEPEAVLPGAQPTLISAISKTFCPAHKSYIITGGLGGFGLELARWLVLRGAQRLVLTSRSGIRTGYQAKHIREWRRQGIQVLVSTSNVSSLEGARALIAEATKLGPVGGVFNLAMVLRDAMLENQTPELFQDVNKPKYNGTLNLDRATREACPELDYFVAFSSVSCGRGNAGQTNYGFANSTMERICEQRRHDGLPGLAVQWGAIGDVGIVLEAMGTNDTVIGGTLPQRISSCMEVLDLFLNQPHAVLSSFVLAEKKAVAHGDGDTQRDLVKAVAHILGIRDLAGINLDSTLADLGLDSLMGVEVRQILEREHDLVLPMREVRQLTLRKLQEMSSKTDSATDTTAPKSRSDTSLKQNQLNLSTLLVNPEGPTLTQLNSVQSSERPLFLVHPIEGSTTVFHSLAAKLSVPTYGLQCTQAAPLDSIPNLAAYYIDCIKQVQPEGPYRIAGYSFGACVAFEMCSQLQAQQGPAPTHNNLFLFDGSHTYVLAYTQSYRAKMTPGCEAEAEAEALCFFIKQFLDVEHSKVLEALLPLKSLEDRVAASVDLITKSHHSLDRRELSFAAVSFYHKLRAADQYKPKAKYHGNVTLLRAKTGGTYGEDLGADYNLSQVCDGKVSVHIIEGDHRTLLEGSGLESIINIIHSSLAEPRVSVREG

B1: rAIM: recombinant AIM protein (rAIM) of mouse, HA-tagged, prepared in HEK293T cells (protein)
chain: ESPTKVQLVGGAHRCEGRVEVEHNGQWGTVCDDGWDRRDVAVVCRELNCGAVIQTPRGASYQPPASEQRVLIQGVDCNGTEDTLAQCELNYYVFDCSHEEDAGAQCENPDSDLLFIPEDVRLVDGPGHCQGRVEVLHQSQWSTVCKAGWNLQVSKVVCRQLGCGRALLTYGSCNKNTQGKGPIWMGKMSCSGQEANLRSCLLSRLENNCTHGEDTWMECEDPFELKLVGGDTPCSGRLEVLHKGSWGSVCDDNWGEKEDQVVCKQLGCGKSLHPSPKTRKIYGPGAGRIWLDDVNCSGKEQSLEFCRHRLWGYHDCTHKEDVEVICTDFDV
modifications: left off: small tags and cut ends
notes: recombinant AIM protein (rAIM) of mouse, HA-tagged, prepared in HEK293T cells
In the case of B1, the “infiltration of macrophages into adipose tissue (F4/80 staining of visceral fat section)” value (AIM knockout mice) is reported as “infiltration of macrophages into adipose tissue”, the “amount of free fatty acids in the culture supernatant” value (3T3-L1 adipocytes) is reported as “significantly increased” and the “amount of glycerol in the culture supernatant” value (3T3-L1 adipocytes) is reported as “significantly increased”. The “AIM signal in adipocyte” value (CD36-/- mice) was “markedly decreased”, the “FAS domains bound to AIM” value (FAS [1]) was “ER, DH, TE and CC” and the “mRNA level of Adipophilin in visceral fat” value (AIM-/- mice) was “low”. The “mRNA level of FSP27 in visceral fat” value (AIM-/- mice) was “low”, the “mRNA level of PREF-1 in visceral fat” value (AIM-/- mice) was “increased” and the “mRNA level of Perilipin in visceral fat” value (AIM-/- mice) was “low”. The “mRNA of C/EBPα in visceral fat” value (AIM-/- mice) was “did not show difference”, the “mRNA of GLUT4 in visceral fat” value (AIM-/- mice) was “did not show difference” and the “mRNA of PPARγ2 in visceral fat” value (AIM-/- mice) was “did not show difference”. For the same molecule, the “binding of rAIM-HA and endogenous FAS (co-immunoprecipitation, Western blotting)” value (FAS [2]) was “coprecipitated”, the FAS activity (FAS [3]) was “markedly suppressed” and the “binding of AIM and FAS (co-immunoprecipitation)” value (FAS [4]) was “coprecipitated”.

Reference: patent publication US20130115220A1, “METHOD FOR PREVENTION OR TREATMENT OF METABOLIC SYNDROME” (DAINIPPON SUMITOMO PHARMA CO., LTD., priority 2010, published 2013)
